Reference: patent US20050048073A1, “Methods of determining west nile virus epitopes and method of using the same” (priority 2001, published 2005)
“And” between values parts separate entries of the source, which are not always exact repeats. Identical values can stand only once.

Experiments:
HLA B*07 = HLA B*07 (Homo sapiens, UniProt P01889); assay: T2B7 binding assay (stabilization of HLA B*07 on TAP-deficient T2 cells, FACS); settings: for Avg. Fold Inc. @ 200: fold increase over background; for Avg. Fold Inc. @ 200 / Avg. MFI 200: peptide at 200 ug/ml; for Avg. MFI 200: mean fluorescence index; for Binding number (binding score): numerical sum of all the positive assays; for Binding strength: rated strong, moderate, weak or none by number of significantly positive wells
Experimental: Triplicate wells of peptide at 10, 20, 200 ug/ml were evaluated in each of the T2 B7 binding assays; each assay was repeated 4 times. […] The “binding score” column provides the numerical sum of all the positive assays in the binding summary column.
The T2B7 binding assay method is well described in the literature and operational in the laboratory. This assay relies on the ability of exogenously added peptides to stabilize the class I MHC/beta 2 microglobulin structure on the surface of transporters associated with antigen processing (TAP)-deficient cell lines. Briefly, HLA B*07 T2 cell lines were prepared by incubating overnight (16 hours) at 26° C. Just prior to the binding assay these cells were washed twice in serum-free media. Solutions of the test peptides at three concentrations (final concentration of 10, 20, and 200 ug/ml in RPMI 1640 (Sigma, St. Louis, Mo.)) were plated in triplicate wells of a 96 well, round-bottom assay plate (Beckton Dickinson, Lincoln Park, N.J.). Sixteen wells containing cells without peptide were included in each plate, serving as the no-peptide control (background control) for the assay.
100,000 cells were added to each well, and the plates were then incubated for four hours at 37° C., 5% CO2 The plates were then spun at 110×g for 10 minutes at 4° C., supernatant is discarded and the remaining cells are re-suspended. One hundred uL of diluted primary antibody-containing hybridoma supernatant (1:10 dilution of ME1 supernatant produced by HB-119 cell line from ATCC) in staining buffer (PBS, 5% FBS, 0.1% sodium azide) was added to all of the wells except 8 wells per assay plate (each containing 200 ug/ml of one study peptide, these wells served as controls for non-specific binding of secondary antibody). Primary antibody was incubated with the peptide-pulsed cells for 30 minutes at 4° C. After washing three times, the cells were re-suspended, and 100 uL of a 1:250 dilution of FITC-labeled secondary antibody (FITC labeled Goat F(ab′)2 Anti-mouse IgG (H+L) from Caltag) in staining buffer were added to all wells. The plates were incubated for 30 minutes at 4° C., and subsequently washed three times. The contents of each well were then resuspended in 200 uL of fixing buffer (PBS, 1% paraformaldehyde), and aliquoted into FACS tubes.
The 16 negative control wells in each plate contained no peptide but did contain cells, primary antibody and secondary antibody. An additional set of triplicate wells was plated with peptide at the highest concentration (200 ug/ml), but no primary antibody was added to the wells to control for non-specific secondary antibody binding. One positive control peptide (the known B*07 binder) was tested at three concentrations (in triplicate wells) in each assay plate.
Following fixing, the presence of fluorescent secondary antibody on the surface of T2 cells (gated to the appropriate cell size) was measured at 488 nm on a FACScan flow cytometer (Becton-Dickinson, New Jersey). The mean linear fluorescence […] of 10,000 events was measured and compared to the background fluorescence of cells plated in (no peptide) control wells. A positive response was defined as a 10% increase over baseline MLF and p<0.05, in more than one concentration in each of four assays. The assays are repeated 4 times for each concentration of peptide. Each peptide was tested in a total of 36 wells (triplicate wells, three concentrations, four assays).

HLA B*07 (human) [1] = assay: T2B7 HLA stabilisation assay, flow cytometry, peptide at 200 ug/ml
HLA B*07 (human) [2] = assay: T2B7 HLA stabilisation assay, flow cytometry, 10/20/200 ug/ml, four assays; settings: for Binding results (total of four assays): scale: of 3 concentrations positive

Molecule	Avg. Fold Inc. @ 200 (HLA B*07)	Avg. MFI 200 (HLA B*07)	Binding number (binding score) (HLA B*07)	Binding strength (HLA B*07)	also measured
APAYSFNCLG [WNB7 005]	1.2	743.5			Binding number (binding score) (HLA B*07; listed as 0005): 8; Binding number (binding score) (HLA B*07; listed as WNVB7 0005): 8; Binding strength (HLA B*07; listed as WNVB7 0005): moderate (stabilized HLA B*07 to a moderate degree (receiving binding scores of 6 to 8))
AVKDELNTLL [WNB7 004]	1.0	842.5	0	non-binder (did not bind (binding score of 2))	
EPPEGVKYVL [WNB7 013]	1.1	681.7			Binding number (binding score) (HLA B*07; listed as WNVB7 0013): 6; Binding strength (HLA B*07; listed as WNVB7 0013): moderate (stabilized HLA B*07 to a moderate degree (receiving binding scores of 6 to 8))
GPGHEEPQLV [WNB7 011]	1.0	848.9	2	non-binder (did not bind (binding score of 2))	
GPGHKARVLA [HIV-1 B7 1291, reference compound]	2.2 and 1.5 and 1.6	1423.8 and 1370.9 and 1003.9	8 and 9	moderate (stabilized HLA B*07 to a moderate degree (receiving binding scores of 6 to 8))	Binding number (binding score) (HLA B*07; listed as WC 1291): eight to nine; Binding strength (HLA B*07; listed as WC 1291): moderately well
IPAGFEPEML [WNB7 008]	1.9	1207.4	10	strong (stabilized HLA B7 on the surface of T2B7 cells at more than two concentrations in all four replicate assays, receiving a total binding score of 10, 11, 11, 12, and 12)	affinity to B*07 in vitro compared with previously published B*07 epitope GPGHKARVLA (from HIV-1) (HLA B*07): much greater affinity
KPTGSASSLV [WNB7 015]	1.7	1070.2			Binding number (binding score) (HLA B*07; listed as WNVB7 0015): 6; Binding strength (HLA B*07; listed as WNVB7 0015): moderate (stabilized HLA B*07 to a moderate degree (receiving binding scores of 6 to 8))
NPMILAAGLI [WNB7 007]	1.1	944.6	2	non-binder (did not bind (binding score of 2))	
PEDIDCWCTK [WNVB7 3399]	1.1	990.3	1	non-binder (did not bind (binding score of 2))	stabilization of HLA B*07 on the surface of T2B7 cells (HLA B*07): did not stabilize T2B7 to a significant degree
PETPQGLAKI [WNVB7 3403]	1.0	588.9	0	non-binder (did not bind (binding score of 2))	stabilization of HLA B*07 on the surface of T2B7 cells (HLA B*07): did not stabilize T2B7 to a significant degree
PFPESNSPIS [WNVB7 3411]	1.0	626.7	1	non-binder (did not bind (binding score of 2))	stabilization of HLA B*07 on the surface of T2B7 cells (HLA B*07): did not stabilize T2B7 to a significant degree
PRTNTILEDN [WNVB7 3415]	0.9	778.6	0	non-binder (did not bind (binding score of 2))	stabilization of HLA B*07 on the surface of T2B7 cells (HLA B*07): did not stabilize T2B7 to a significant degree
RPAADGRTVM [WNB7 023]	1.5	979.1	12	strong (stabilized HLA B7 on the surface of T2B7 cells at more than two concentrations in all four replicate assays, receiving a total binding score of 10, 11, 11, 12, and 12)	affinity to B*07 in vitro compared with previously published B*07 epitope GPGHKARVLA (from HIV-1) (HLA B*07): much greater affinity
RPQRHDEKTL [WNB7 019]	2.8	1644.6	11	strong (stabilized HLA B7 on the surface of T2B7 cells at more than two concentrations in all four replicate assays, receiving a total binding score of 10, 11, 11, 12, and 12)	affinity to B*07 in vitro compared with previously published B*07 epitope GPGHKARVLA (from HIV-1) (HLA B*07): much greater affinity
RPRWIDARVY [WNB7 017]	1.9	1714.0	11	strong (stabilized HLA B7 on the surface of T2B7 cells at more than two concentrations in all four replicate assays, receiving a total binding score of 10, 11, 11, 12, and 12)	affinity to B*07 in vitro compared with previously published B*07 epitope GPGHKARVLA (from HIV-1) (HLA B*07): much greater affinity
SPHRVPNYNL [WNB7 020]	2.5	1607.9	12	strong (stabilized HLA B7 on the surface of T2B7 cells at more than two concentrations in all four replicate assays, receiving a total binding score of 10, 11, 11, 12, and 12)	affinity to B*07 in vitro compared with previously published B*07 epitope GPGHKARVLA (from HIV-1) (HLA B*07): much greater affinity
TPAAPSYTLK [WNB7 009]	1.5	954.5			Binding number (binding score) (HLA B*07; listed as WNVB7 0009): 8; Binding strength (HLA B*07; listed as WNVB7 0009): moderate (stabilized HLA B*07 to a moderate degree (receiving binding scores of 6 to 8))
TPGLRCLNLD [WNB7 024]	1.0	849.6	2	non-binder (did not bind (binding score of 2))	
VPCRGQDELV [WNB7 010]	1.0	658.6	4	weak (weak binders (binding score of 4))	
VPGTKIAGML [WNB7 018]	1.7	1088.4			Binding number (binding score) (HLA B*07; listed as WNVB7 0018): 6; Binding strength (HLA B*07; listed as WNVB7 0018): moderate (stabilized HLA B*07 to a moderate degree (receiving binding scores of 6 to 8))
AVKDELNTLL [WNVB7 0004]					Avg. Fold Inc. @ 200 (fold over background) (HLA B*07 (human) [1]): 1; Avg. MFI 200 (HLA B*07 (human) [1]): 842 MFI; Binding number (binding score) (HLA B*07 (human) [2]): 0; Binding results (total of four assays) (HLA B*07 (human) [2]; in 4 assays): 0
PFPESNSPIS [WNVB7 3411]					Avg. Fold Inc. @ 200 (fold over background) (HLA B*07 (human) [1]): 1; Avg. MFI 200 (HLA B*07 (human) [1]): 627 MFI; Binding number (binding score) (HLA B*07 (human) [2]): 1; Binding results (total of four assays) (of 3 concentrations positive, in 1 assay) (HLA B*07 (human) [2]): 1
PRTNTILEDN [WNVB7 3415]					Avg. Fold Inc. @ 200 (fold over background) (HLA B*07 (human) [1]): 0.9; Avg. MFI 200 (HLA B*07 (human) [1]): 779 MFI; Binding number (binding score) (HLA B*07 (human) [2]): 0; Binding results (total of four assays) (HLA B*07 (human) [2]; in 4 assays): 0
AAKKKGASLL [WNVB7 0006]					Avg. Fold Inc. @ 200 (fold over background) (HLA B*07 (human) [1]): 1.2; Avg. MFI 200 (HLA B*07 (human) [1]): 708 MFI; Binding number (binding score) (HLA B*07 (human) [2]): 4; Binding results (total of four assays) (HLA B*07 (human) [2]; in 4 assays): 1
NPMILAAGLI [WNVB7 0007]					Avg. Fold Inc. @ 200 (fold over background) (HLA B*07 (human) [1]): 1.1; Avg. MFI 200 (HLA B*07 (human) [1]): 945 MFI; Binding number (binding score) (HLA B*07 (human) [2]): 2; Binding results (total of four assays) (HLA B*07 (human) [2]; in 2 assays): 1
